Target: protein A (UniProt P38507)
Assay: Heat/Cool phage ELISA: phage-displayed VH, 80 C 10 min then 4 C 10 min, captured on coated protein A; signal as % of untreated sample

- Retained binding to protein A (%): 50%
Substance: DP47 VH SY_31/32-DE

From patent US20160145328A1
